The text below walks through data of patent publication US11260098B2, “Method for suppressing obesity or development of obesity” (priority 2014, dated 2022).

One data set deals with mice. Put plainly: Conditioned taste aversion preference test. The settings on record: i.p. 0.5 ml, dose giving about 1/2 food suppression (1/4 dilution, 1/16 dilution, undiluted filtrate), FIG. 14. In kind it is in vivo. The protocol:
8. […] To define whether the appetite-suppressing effects induced by the undiluted solution of liquid component, the residual liquid containing the >3,000 component, and the filtrated liquid containing the <3,000 component were non-specific, a conditioned taste aversive test (a conditioned taste aversion preference test) was carried out in mice. For 5 days, each of mice was adapted to two bottles containing water, allowing to the drinking schedule of 2 hours per day (10:00 am to 12:00). On Day 6 of the test, each mice was allowed to drink water for 30 minutes followed by installation of 2 bottles added with saccharine solution (0.15%). Thereafter, saline, the liquid components or lithium chloride (molecular weight: 42.4 daltons) solution, each in an amount of 0.5 ml, was intraperitoneally administered to mice (n=5), and the conditions were set up as the aversion learning of the taste against saccharine solution. Subsequently, each of mice was subjected to drink for 90 minutes using 2 botties with water. […] On Day 8 of the test, the animals were allowed to drink for 30 minutes using 2 bottles with either water or saccharine solution, and the preference ratio for drinking of saccharine solution (the amounts of saccharine solution intake÷the amounts of entire water intake for 2 bottles) was calculated. […] The data are expressed as mean value±standard deviation. […]

The next data set relates to rat. To be noted: centrally administered to the rat ventricle; cited from earlier work.
The conditions of data set [1]: intraperitoneal administration; cited from earlier work.

Consider `[Cl-].[Li+]` [lithium chloride], for which the “preference intake of saccharine solution” value with mice was “significantly suppressed”.

B1: nesfatin-1: satiety molecule generated by processing of the secretory protein nesfatin; human nesfatin-1 9,695 daltons (protein, UniProt P80303 25-106, looked up)
Nesfatin-1: VPIDIDKTKVQNIHPVESAKIEPPDTGLYYDEYLKQVIDVLETDKHFREKLQKADIEEIKSGRLSKELDLVSHHVRTKLDEL
modifications: Nesfatin-1
notes: satiety molecule generated by processing of the secretory protein nesfatin; human nesfatin-1 9,695 daltons
As to B1, the food intake entry with rat was “significantly suppressed”. In addition, the appetite suppression entry in data set [1] is recorded as “induced appetite suppression in a dose-dependent manner”.
